Results on one molecule are retold here after publication PMC6078952.

By Kd is commonly meant the concentration at which binding is half-saturated. Broadly, the koff is a measure of how fast the partners let go of each other. As a reminder, the kon is a measure of how fast the partners come together. A low value points to slow association.

This assay concerns the target Anastellin. The assay is described as follows: BLI; Octet RED96, anastellin (100 µg/ml) covalently coupled to AR2G biosensors via amine groups, sensors dipped into LOX-PP solutions for 3 min in HBS-P20; 1:1 model. On the technique in general: BLI is a label-free optical method that tracks binding on a fibre tip over time.

B1: recombinant human propeptide of lysyl oxidase (LOX-PP) (domain or fragment)
chain: APLAAGQQQPPREPPAAPGAWRQQIQWENNGQVFSLLSLGSQYQPQRRRDPGAAVPGAANASAQQPRTPILLIRDNRTAAARTRTAGSSGVTAGRPRPTARHWFQAGYSTSRAREAGASRAENQTAPGEVPALSNLRPPSRVDGMVG
modifications: N-linked oligosaccharides (removed by PNGase F, about 13 kDa; three glycosylated asparagine residues: N81, N97, N144)
Regarding B1, the equilibrium dissociation constant (Kd) turned out to be 152 nM, the koff stood at 0.000445 s⁻¹ and the kon is 2930 M⁻¹ s⁻¹.
